Results: patent US6730828B1, “Isolated nucleic acids encoding a wheat glutathione transferase, plants transformed therewith and methods of use thereof” (Aventis Agriculture Limited, priority 1997, dated 2004)

What was measured:
GST activity toward CDNB = type: biochemical
Method: (§1) The purified isoenzymes were assayed for GST activity toward herbicides using the HPLC-based assays described by Edwards R. and Cole D. J. (Pesticide Biochemistry and Physiology Vol. 54, pp96-104 (1996)) and the results are presented in Table 2. […] These isoenzymes had additional activities as glutathione peroxidases able to reduce linoleic acid hydroperoxide, a major reaction product formed during membrane peroxidation in plants (Williamson and Beverly. J. Cereal Sci. 8, 1988, 155-163).
To confirm that TaGST1 encoded a GST, it was expressed as a fusion protein with beta-galactosidase using the pBluescript plasmid in E. coli strain SOLR. TaGST1 clones were inoculated into LB liquid medium and were grown overnight at 37/C on all orbital shaker in the presence of IPTG. Bacteria were then pelleted by centrifugation, lysed by sonication and assayed for GST activity toward CDNB and analysed by SDS-PAGE and Western blotting using the anti-TaGSTI-I serum. With all six TaGST1 clones, GST activity toward CDNB could be determined in the crude extracts in the range 30-50 nkat/mg crude lysate.
(§2) To assay the recombinant fusion proteins for GST activity, the E. coli were grown in the presence of IPTG and then pelleted by centrifugation. The bacteria were then lysed by sonication and the protein precipitated using 80% ammonium sulphate. After resuspension and desalting, GSTs were purified by affinity chromatography. The WIC 3 fusion protein was purified using sulphobromophthalein-S-glutathione affinity chromatography (Mozer et al. Biochem. 22, 1983, 1068-1072) while the other WIC fusion proteins were purified using glutathione-agarose (Mannervik and Guthenberg. Methods Enzymol. 77 1981, 231-235).The purified enzymes were then assayed for GST activities toward herbicides (Table 3) and GST activities toward non-herbicide substrates and glutathione peroxidase activities toward organic hydroperoxides (Table 4).
A polyclonal antiserum was raised in a rabbit to a mixture of TaGST1-2 and TaGST1-3. When tested against crude extracts from safener-treated wheat shoots the antiserum recognised both the 25 kDa TaGST1 subunit and the 26 kDa safener-inducible TaGST2 and TaGST3 subunits. The antiserum was then used in conjunction with the antiserum raised to TaGST1-1 to immuno screen the cDNA library prepared from fenchlorazole ethyl treated wheat shoots as described in example 1. Duplicate lifts were taken from the plated out library and the first blot screened with the antiserum raised against TaGST1-2 and TaGST1-3. The second blot was screened with the antiserum raised to TaGST1-1. Five plaques were identified from the first blot which were absent from the second blot corresponding to cDNAs encoding TaGST2 or TaGST3 like polypeptides and theses clones were purified and the respective plasmids sequenced. […] The other three clones ICC. ICP and ICV had identical DNA sequences (SEQ ID No. 17) and predicted amino acid sequence (SEQ ID No. 18). GST ICJ was sub-cloned into the pET 11a vector after using PCR to introduce a Nde 1 restriction site into the translation start site, using the primer 5′ AGGTAGTTACATATGGCCGGAGGA 3′ (SEQ ID No. 19) in the amplification. following sub-cloning, the sequence of GST ICJ was re-checked to ensure no PCR induced errors had been introduced. The recombinant GST ICJ was then expressed in E. coli and purified by S-hexylglutathione affinity chromatography. The purified GST ICJ was assayed for activities as a GST (Table 3) and as a glutathione peroxidase (Table 4). […] GST ICV was finally expressed as the respective beta-galactosidase fusion protein using the Bluescript plasmid and assayed for GST activity (Table 3 ) and glutathione peroxidase activity (Table 4) in crude bacterial lysates. […]

[1] = GST activity toward herbicide fluorodifen (HPLC-based assay); type: biochemical
Method: as §1, §2
(§3) A polyclonal antiserum was raised in a rabbit to a mixture of TaGST1-2 and TaGST1-3. When tested against crude extracts from safener-treated wheat shoots the antiserum recognised both the 25 kDa TaGST1 subunit and the 26 kDa safener-inducible TaGST2 and TaGST3 subunits. The antiserum was then used in conjunction with the antiserum raised to TaGST1-1 to immuno screen the cDNA library prepared from fenchlorazole ethyl treated wheat shoots as described in example 1. Duplicate lifts were taken from the plated out library and the first blot screened with the antiserum raised against TaGST1-2 and TaGST1-3. The second blot was screened with the antiserum raised to TaGST1-1. Five plaques were identified from the first blot which were absent from the second blot corresponding to cDNAs encoding TaGST2 or TaGST3 like polypeptides and theses clones were purified and the respective plasmids sequenced. […] The other three clones ICC. ICP and ICV had identical DNA sequences (SEQ ID No. 17) and predicted amino acid sequence (SEQ ID No. 18). GST ICJ was sub-cloned into the pET 11a vector after using PCR to introduce a Nde 1 restriction site into the translation start site, using the primer 5′ AGGTAGTTACATATGGCCGGAGGA 3′ (SEQ ID No. 19) in the amplification. following sub-cloning, the sequence of GST ICJ was re-checked to ensure no PCR induced errors had been introduced. The recombinant GST ICJ was then expressed in E. coli and purified by S-hexylglutathione affinity chromatography. The purified GST ICJ was assayed for activities as a GST (Table 3) and as a glutathione peroxidase (Table 4). […] GST ICV was finally expressed as the respective beta-galactosidase fusion protein using the Bluescript plasmid and assayed for GST activity (Table 3 ) and glutathione peroxidase activity (Table 4) in crude bacterial lysates. The specific activity of GST ICV toward these substrates was then calculated by I) subtracting the low levels of GST and GPOX activity present due the endogenous activities in the E. coli and ii) determining the proportion of protein in the lysate present as recombinant GST ICV from SDS-PAGE analysis, by densitometry analysis of polypeptides stained with Coomassie blue.

[2] = GST activity toward herbicide fenoxaprop-ethyl (HPLC-based assay); type: biochemical
Method: as §1, §2, §3

[3] = GST activity toward herbicide metolachlor (HPLC-based assay); type: biochemical
Method: as §1, §2, §3

wheat shoots = experiment: Enhancement of GST isoenzyme expression in wheat shoots by safener fenchlorazole-ethyl; type: in vivo, Triticum aestivum L. var. Hunter; settings: for % enhancement by safener: fenchlorazole-ethyl treated (safened) versus unsafened wheat shoots; for Effect of safener fenchlorazole-ethyl on expression: wheat shoots, in words
Method: Wheat seeds (Triticum aestivum L. var. Hunter) were imbibed in a 10 mg/l solution of the herbicide safener fenchlorazole-ethyl and then grown in an environmental growth room with further root-applied watering treatments of 5 mg/l fenchlorazole ethyl applied as required. At 10 days after imbibing, the shoot tissue was harvested and extracted prior to precipitation of the protein with ammonium sulphate (80% saturation). The total protein extract was then applied in the presence of 1 M ammonium sulphate to a phenyl-Sepharose column. The bound GSTs were then recovered, firstly by reducing the ammonium sulphate concentration to 0 M to yield the polar GST fraction, which represented 61% of the recovered activity toward 1-chloro-2,4-dinitrobenzene (CDNB). The remaining 39% of the GST activity was then recovered by adding ethylene glycol (50% v/v) to the running buffer to yield the hydrophobic GST fraction. […] The component polypeptides in the active fractions were then analysed by silver staining after resolution by sodium dodecyl sulphate polyacrylamide gel electrophoresis (SDS-PAGE). It was concluded that in fenchlorazole-ethyl-treated wheat the polar GSTs were composed of 25 kDa and 26 kDa polypeptides, while the hydrophobic fraction contained 25 kDa, 26 kDa and 24 kDa polypeptides. Further analysis by reversed-phase HPLC confirmed the subunit compositions (FIG. 2). Based on the combined analyses by Q-sepharose, HPLC and SDS-PAGE these GST polypeptides were named as described in Table 1, which also contains details of how these subunits associate together to form the active dimers found in plants and the relative abundance of these subunits in extracts from unsafened and fenchlorazole-ethyl treated ([…]) plants.

[4] = Glutathione peroxidase activity toward cumene hydroperoxide; type: biochemical; settings: recombinant wheat GST, affinity purified; ± standard error (n = 3)
Method: as §2, §3

[5] = GST activity toward benzyl isothiocyanate; type: biochemical; settings: recombinant wheat GST, affinity purified; ± standard error
Method: as §2

[6] = GST activity toward crotonaldehyde; type: biochemical; settings: recombinant wheat GST, affinity purified; ± standard error
Method: as §2

[7] = isoenzymes purified from fenchlorazole-ethyl-treated wheat shoots
[8] = recombinant wheat GST expressed in E. coli, affinity purified, ± standard error

B1: TaGST1-2: wheat GST isoenzyme, heterodimer of TaGST1 and 26 kDa TaGST2 subunits (SEQ ID No. 2/SEQ ID No. 16) (protein)
chain 1: MAGEKGLVLLDFWVSPFGQRVRIALAEKGLPYEYAEEDLMAGKSDRLLRANPVHKKIPVLLHDGRAVNESLIILQYLEEAFPDAPALLPSDPYARAQARFWADYVDKKVYDCGSRLWKLKGEPQAQARAEMLDILKTLDGALGDKPFFGGDKFGFVDAAFAPFTAWFHSYERYGEFSLPEVAPKIAAWAKRCGERESVAKSLYSPDKVYDFIGLLKKKYGIE
chain 2: MAGDGELKLLGVWTSPFVIRVRVVLNLKSLPYEYVEESLGSKSALLLGSNPVHQSVPVLLHGGRPVNESQVIVQYIDEVWAGAGPSVLPADPYERATARFWAAYVDDKVGSAWTGMLFSCKTEEERAEAVSRAVAALETLEGAFAECSKGKAFFGGDAIGFVDVVLGGYLGWFGAIDKIIGRRLIDPARTPLLARWEERFRAADAAKGVVPDDADKMLEFLPTVLAWIAGKAK
modifications: heterodimer; Triticum aestivum L.
GST activity toward CDNB (GST activity toward CDNB; [7]): 1,441 nkat.mg^−1
GST activity toward fluorodifen [1, 7]: 0.38 nkat.mg^−1
GST activity toward fenoxaprop-ethyl [2, 7]: 0.61 nkat.mg^−1
GST activity toward metolachlor [3, 7]: 0.25 nkat.mg^−1
% enhancement by safener (wheat shoots): Only
Effect of safener fenchlorazole-ethyl on expression (wheat shoots): only observed following treatment with the safener

B2: TaGST1-3: wheat GST isoenzyme, heterodimer of TaGST1 and 26 kDa TaGST3 subunits (SEQ ID No. 2/SEQ ID No. 18) (protein)
chain 1: MAGEKGLVLLDFWVSPFGQRVRIALAEKGLPYEYAEEDLMAGKSDRLLRANPVHKKIPVLLHDGRAVNESLIILQYLEEAFPDAPALLPSDPYARAQARFWADYVDKKVYDCGSRLWKLKGEPQAQARAEMLDILKTLDGALGDKPFFGGDKFGFVDAAFAPFTAWFHSYERYGEFSLPEVAPKIAAWAKRCGERESVAKSLYSPDKVYDFIGLLKKKYGIE
chain 2: MAGGEELKLLGWWAPGVSPYVLRAQMALAVKGLSYDYLPEDRWSTSDLLIASNPVYKKVPVLIHNGRPVCESLLILEYLDDAVGLAGNGKPILPADPYSRAVARFWAAYVNDKLFPSCTGILKTTKQEERAGKMEETLSGLRHLEAVMAECSEGEAEAPFFGGDAIGFLDIALGCYLPWFEAAGRLAGLGPIIDPARTPKLAAWAERFSVAEPIKALLPGVDKLEEYITTALYPKWNIAVTGN
modifications: heterodimer; Triticum aestivum L.
GST activity toward CDNB (GST activity toward CDNB; [7]): 1,700 nkat.mg^−1
GST activity toward fluorodifen [1, 7]: 0.38 nkat.mg^−1
GST activity toward fenoxaprop-ethyl [2, 7]: 0.44 nkat.mg^−1
GST activity toward metolachlor [3, 7]: 0.28 nkat.mg^−1
% enhancement by safener (wheat shoots): Only
Effect of safener fenchlorazole-ethyl on expression (wheat shoots): only observed following treatment with the safener

B3: TaGST1: recombinant wheat GST from TaGST1 cDNA (SEQ ID No. 1, amino acid SEQ ID No. 2) expressed in E. coli (protein)
chain: MAGEKGLVLLDFWVSPFGQRVRIALAEKGLPYEYAEEDLMAGKSDRLLRANPVHKKIPVLLHDGRAVNESLIILQYLEEAFPDAPALLPSDPYARAQARFWADYVDKKVYDCGSRLWKLKGEPQAQARAEMLDILKTLDGALGDKPFFGGDKFGFVDAAFAPFTAWFHSYERYGEFSLPEVAPKIAAWAKRCGERESVAKSLYSPDKVYDFIGLLKKKYGIE
modifications: Triticum aestivum L.
GST activity toward CDNB (GST activity toward CDNB; recombinant wheat GST expressed in E. coli, affinity purified): 1970 nkat.mg^−1
GST activity toward fluorodifen [1, 8]: 2.0 ± 0.1 nkat.mg^−1
GST activity toward fenoxaprop-ethyl [2, 8]: 0 nkat.mg^−1
GST activity toward metolachlor [3, 8]: 0.127 ± 0.014 nkat.mg^−1
Glutathione peroxidase activity toward cumene hydroperoxide [4]: 0.7 ± 0.1 absorbance change at 340 nm.mg^−1
GST activity toward benzyl isothiocyanate [5]: 11.8 ± 0 nkat.mg^−1
GST activity toward crotonaldehyde [6]: 3.7 ± 0.3 nkat.mg^−1
